In the supplement of paper PMC7877785:
± gives the uncertainty stated by the source.

Assay: self-splicing fitness, log relative to wild type (ln ratio); higher = more splicing; Tetrahymena group I intron in knt gene, E. coli kanamycin selection, DiMSum; sequences stand for … in CUCUCU…GGAGGGAAAAGUUAUCAGGCAUGCACCUGGUAGCUAGUCUUUAAACCAAUAGAUUGCAUCGGUUUAAAAGGCAAGACCGUCAAAUUGCGGGAAAGGGGUCAACAGCCGUUCAGUACCAAGUCUCAGGGGAAACUUUGAGAUGGCCUUGCAAAGGGUAUGGUAAUAAGCUGACGGACAUGGUCCUAACCACGCAGCCAAGUCCUAAGUCAACAGAUCUUCUGUUGAUAUGGAUGCAGUUCACAGACUAAAUGUCGGUCGGGGAAGAUGUAUUCUUCUCAUAAGAUAUAGUCGGACCUCUCCUUAAUGGGAGCUAGCGGAUGAAGUGAUGCAACACUGGAGCCGCUGGGAACUAAUUUGUAUGCGAAAGUAUAUUGAUUAGUUUUGGAGUACUCGUGGUCG
Procedure, shortened: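 The eight P1ex-region nucleotides of an intron in the knt kanamycin-resistance gene on pET-22b(+) were all randomised and the library put into E. coli BL21(DE3). Six replicate transformations were grown overnight at 37°C or 30°C on LB agar with or without 25 μg/mL kanamycin, together with 100 μg/mL carbenicillin, 50 μM IPTG and 0.2% rhamnose. Colonies were pooled and amplicon-sequenced on an Illumina HiSeq 2500. Fitness from DiMSum is the error-weighted combination of wild-type-normalised replicate fold changes, kanamycin over none.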

Row | Sequence | self-splicing fitness (ln) (30 °C) | self-splicing fitness (ln) (37 °C)
1 | CAACAGCAAUAUUACGUCAA | -3.49 ± 0.13 | -2.08 ± 0.1
2 | AAACAGCAAUAUUACGGUAG | -2.8 ± 0.12 | -2.02 ± 0.12
3 | ACAGAGCAAUAUUACGCGAA | -3.58 ± 0.25 | -1.21 ± 0.18
4 | GGCUAGCAAUAUUACGAUGC | -1.03 ± 0.15 | -0.519 ± 0.28
5 | UGUGAGCAAUAUUACGUCAA | -3.68 ± 0.35 | -2.65 ± 0.31
6 | GCUUAGCAAUAUUACGGCUC | -0.359 ± 0.098 | 0.0516 ± 0.12
7 | CAAAAGCAAUAUUACGAGCA | -2.5 ± 0.14 | -1.97 ± 0.14
8 | CUGCAGCAAUAUUACGGACC | -5.3 ± 0.36 | -2.18 ± 0.31
9 | CCCCAGCAAUAUUACGGAAA | -4.13 ± 0.34 | -1.64 ± 0.16
10 | AGUUAGCAAUAUUACGCGGG | -4.1 ± 0.33 | -0.533 ± 0.15
11 | AGACAGCAAUAUUACGCUUA | -0.813 ± 0.086 | -0.083 ± 0.12
12 | CUGCAGCAAUAUUACGCCUC | -4.25 ± 0.42 | -2.16 ± 0.5
13 | UGGGAGCAAUAUUACGGGGG | -2.97 ± 0.25 | -2.17 ± 0.35
14 | GGUUAGCAAUAUUACGAAAU | -1.45 ± 0.11 | -0.492 ± 0.14
15 | GCAUAGCAAUAUUACGAAAG | -2.72 ± 0.2 | -2.69 ± 0.24
16 | UGUGAGCAAUAUUACGUAUG | -1.22 ± 0.1 | -1.26 ± 0.12
17 | GCAGAGCAAUAUUACGAUGC | -4.01 ± 0.32 | -1.99 ± 0.18

Row | Sequence | self-splicing fitness (ln) (30 °C) | self-splicing fitness (ln) (37 °C)
18 | CACAAGCAAUAUUACGCUUC | -3.67 ± 0.18 | -2.59 ± 0.27
19 | CGUUAGCAAUAUUACGAAUA | -1.54 ± 0.17 | -1.69 ± 0.36
20 | AUAUAGCAAUAUUACGUGUU | -4.26 ± 0.39 | -1.21 ± 0.18
21 | UGAUAGCAAUAUUACGUGUG | -1.45 ± 0.1 | -0.804 ± 0.098
22 | UCCGAGCAAUAUUACGGCAU | -2.13 ± 0.13 | -1.62 ± 0.097
23 | GGGCAGCAAUAUUACGACCA | -0.297 ± 0.28 | 0.951 ± 0.41
24 | GGAGAGCAAUAUUACGAAAG | -2.26 ± 0.26 | –
25 | UCGGAGCAAUAUUACGUCCA | -2.06 ± 0.48 | -0.639 ± 0.37
26 | CCCUAGCAAUAUUACGCCCC | -3.88 ± 0.37 | -3.05 ± 0.47
27 | UCGCAGCAAUAUUACGACAC | -1.67 ± 0.26 | -2.78 ± 0.41
28 | CUCAAGCAAUAUUACGGUUA | -2.78 ± 0.2 | -2.81 ± 0.2
29 | GACGAGCAAUAUUACGGCGG | -2.65 ± 0.33 | -2.42 ± 0.29
30 | CCUGAGCAAUAUUACGUGGU | -3.09 ± 0.16 | -2.94 ± 0.21
31 | CUUGAGCAAUAUUACGAAUG | -1.23 ± 0.12 | -0.596 ± 0.19
32 | CCUUAGCAAUAUUACGCGAC | -3.16 ± 0.26 | -2.12 ± 0.28
33 | AGAUAGCAAUAUUACGCACU | -1.22 ± 0.1 | -0.664 ± 0.14
